Measurements from patent US20210332115A1 (Sanofi, published 2021).
Each block holds one binder with its values, some of them ahead of it.

What was measured:
[1] = biological target: T1, Homo sapiens factor Bb protein (human, UniProt P00751 260-764); assay: SPR single cycle kinetics; ratio against VH0/Vκ0
T1 construct: Bought from CompTech (A155); also called complement factor Bb; human factor Bb
Description: All single cycle kinetic experiments were run at 25° C. with HBS-P+running buffer (pH 7. 4) (GE Healthcare, Little Chalfont, UK).
Antibodies were diluted in running buffer to a final concentration of 1 μg/ml, based on concentrations assessed by ELISA titer. At the start of each cycle, antibodies were loaded onto Fc2, Fc3 and Fc4 of the Protein A chip (GE Healthcare, Little Chalfont, UK). IgGs were captured at a flow rate of 10 μl/min to give an immobilization level (RL) of ˜63 RU, the theoretical value to obtain an Rmax of ˜50 RU. The surface was then allowed to stabilize. Single cycle kinetic data was obtained with factor Bb (CompTech, Tyler, USA) as the analyte at a flow rate of 30 μl/min to minimize any potential mass transport limitations. Multiple repeats with the reference chimeric antibody were performed to check the stability of the surface and analyte over the kinetic cycles. The signal from the reference channel Fc1 (no antibody) was subtracted from that of Fc2, Fc3 and Fc4 to correct for differences in non-specific binding to a reference surface. A four point, two-fold dilution range from 0. 78 nM to 6. 25 nM factor Bb without regeneration between each concentration was used. The association phase for the four injections of increasing concentrations of factor Bb was monitored for 200 seconds each time and a single dissociation phase was measured for 200 seconds following the last injection of factor Bb. Regeneration of the Protein A surface was conducted using two injections of 10 mM glycine-HCL pH 1. 5.
Single cycle kinetics using cell culture supernatants were performed as described above. […] The relative KD was calculated by dividing the KD of the VH0/Vκ0 reference antibody by that of the humanized variant assayed in the same experiment.

[2] = biological target: T1, Homo sapiens factor Bb protein; assay: BLI Octet, biotinylated antibody on SA biosensors
Description: Briefly, biotinylated antibodies were loaded onto SA Biosensors equilibrated in PBS, 0.1% BSA, 0.02% Tween-20 (assay buffer). After a 60 second baseline in assay buffer, antibodies were loaded onto the probes for 180 seconds, followed by another 60 second baseline. Association to human (Comptech) or cynomolgus monkey factor Bb (purified in-house) was measured for 300 seconds, followed by a 300 second dissociation. Kinetic parameters were calculated by the Octet Analysis software using a 1:1 binding model.
To determine whether the modification of the Fc portion of the antibodies affected affinity and species cross-reactivity, VH4/VK6-IgG4v2 and VH6/VK7-IgG4v2 were tested alongside their parental antibodies, VH4/VK6 and VH6/VK7, respectively, for their ability to bind human and cynomolgus monkey factor Bb by BLI. VH4/VK6-IgG4v2 and VH6/VK7-IgG4v2 contain mutations in the Fc region that increase the affinity for an Fc receptor.

[3] = biological target: T1, Homo sapiens factor Bb protein; assay: SPR single cycle kinetics; against cynomolgus monkey factor Bb
Description: (§1) The ability of VH4/VK6 and VH6/VK7 to bind to zymogen factor B and factor Bb from both human and cynomolgus monkey was determined by surface plasmon resonance using a Biacore T200. Human factor B and factor Bb were purchased from Comptech and cynomolgus monkey factor B and factor Bb were purified in-house. Briefly, the monoclonal antibodies were captured on a Biacore Series S Protein A chip in HBSP+ (10 mM HEPES, 150 mM NaCl, 0.05% P20 pH 7.4) at a flow rate of 30 μL/min. A five-point concentration series of each analyte was tested for binding using single cycle kinetics with a contact time of 180 seconds per concentration followed by a 600 sec dissociation at 25° C. and a flow rate of […]. Both human and cynomolgus monkey factor B started at a concentration of 500 nM followed by 2-fold dilutions, while human and cynomolgus monkey factor Bb started at concentrations of 30 nM and 150 nM, respectively, followed by 2-fold dilutions. Data were analyzed using the Biacore evaluation software using a 1:1 binding model. […] Binding to human or cynomolgus monkey factor B was barely detectable and the small signal that was observed was dominated by non-specific binding.

[4] = biological target: T1, Homo sapiens factor Bb protein; assay: SPR single cycle kinetics, antibody on Protein A chip, antigen analyte
Description: as §1

T1 sequence (P00751 260-764 limits assumed): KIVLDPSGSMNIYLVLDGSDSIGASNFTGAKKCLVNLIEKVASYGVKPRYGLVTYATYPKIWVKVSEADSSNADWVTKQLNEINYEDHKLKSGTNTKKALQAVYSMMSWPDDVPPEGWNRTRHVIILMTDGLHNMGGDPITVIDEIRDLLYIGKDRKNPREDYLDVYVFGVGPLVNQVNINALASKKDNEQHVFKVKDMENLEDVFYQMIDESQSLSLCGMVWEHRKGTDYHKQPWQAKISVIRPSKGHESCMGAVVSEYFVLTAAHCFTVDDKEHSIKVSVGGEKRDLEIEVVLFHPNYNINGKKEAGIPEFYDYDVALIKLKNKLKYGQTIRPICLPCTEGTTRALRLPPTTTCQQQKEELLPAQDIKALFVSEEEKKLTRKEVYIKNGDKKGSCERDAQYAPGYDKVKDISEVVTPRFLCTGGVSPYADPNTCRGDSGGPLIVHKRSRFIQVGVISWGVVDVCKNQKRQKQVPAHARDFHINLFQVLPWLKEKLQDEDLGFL

Relative KD [1]: 1
B1: VH0/Vκ0 (Chimeric) (antibody, V domains shown)
VH: EVQLVESGGALVKPGGSLKLSCAASGFTFSNYAMSWVRQTPEKRLEWVATISNRGSYTYYPDSVKGRFTISRDNAKNTLYLQMSSLRSEDTALYYCARERPMDYWGQGTSVTVSS
VL: DIVMTQSHKFMSTSVGDRVSITCKASQDVGTAVAWYQQKPGQSPKLLIYWASTRHTGVPDRFTGSGSGTDFTLTITNVQSEDLAVYFCHQHSSNPLTFGAGTKLELK
notes: also called chimeric antibody

Kd [2]: 1.7 nM
fold higher affinity for human factor Bb compared to cynomolgus monkey factor Bb [3]: ~10 fold
Kd [4]: 5.92 nM
koff [4]: 0.00138 s⁻¹
kon [4]: 232000 M⁻¹ s⁻¹
B2: VH6/Vκ7-IgG4v2 (antibody)
heavy: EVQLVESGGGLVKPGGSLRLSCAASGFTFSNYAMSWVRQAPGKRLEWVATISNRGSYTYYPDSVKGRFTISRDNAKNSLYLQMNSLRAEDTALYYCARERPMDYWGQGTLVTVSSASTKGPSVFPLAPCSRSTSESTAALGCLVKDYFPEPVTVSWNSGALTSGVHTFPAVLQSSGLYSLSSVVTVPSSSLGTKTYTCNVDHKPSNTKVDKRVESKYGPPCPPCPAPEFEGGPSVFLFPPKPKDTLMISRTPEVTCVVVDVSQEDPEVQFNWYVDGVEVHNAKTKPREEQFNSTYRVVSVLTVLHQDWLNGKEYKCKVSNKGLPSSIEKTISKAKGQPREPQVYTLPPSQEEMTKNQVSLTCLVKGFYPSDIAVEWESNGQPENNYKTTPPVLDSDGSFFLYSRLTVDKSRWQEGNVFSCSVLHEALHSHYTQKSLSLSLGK
light: DIQMTQSPSTLSASVGDRVTITCKASQDVGTAVAWYQQKPGKAPKLLIYWASTRHTGVPDRFSGSGSGTDFTLTISSLQAEDFAVYFCHQHSSNPLTFGQGTKLEIKRTVAAPSVFIFPPSDEQLKSGTASVVCLLNNFYPREAKVQWKVDNALQSGNSQESVTEQDSKDSTYSLSSTLTLSKADYEKHKVYACEVTHQGLSSPVTKSFNRGEC
notes: also called VH6/VK7-IgG4v2; VH6/VK7-IgG4v2_HEK
